# Measurements published in paper PMC13480635.
# Assays:
# [1] = target: Trypanosoma brucei gambiense variant surface glycoprotein LiTat 1.3 (Lille Trypanozoon antigen type 1.3) (Trypanosoma brucei gambiense); test: SEC-MALS; Agilent Bio SEC-3 column, PBS; samples at 0.5 mg/mL and 5 mg/mL, 50 uL injected
# [2] = target: Trypanosoma brucei gambiense variant surface glycoprotein LiTat 1.3 (Lille Trypanozoon antigen type 1.3) (Trypanosoma brucei gambiense); test: SAXS; SEC-SAXS, Shodex KW404-4F column, 20 mM HEPES, 150 mM NaCl, 3% glycerol, pH 7.4; 50 uL at 15.51 mg/mL injected; curve from the first (major) elution peak
substance,measurement,setting,value
Trypanosoma brucei gambiense variant surface glycoprotein LiTat 1.3 (Lille Trypanozoon antigen type 1.3) (natural protein),stoichiometry N,[1],3
same,stoichiometry N,[2],3
